# Assay results: patent US20180021429A1, “ANTICANCER AGENTS OR ANTIMETASTATIC AGENTS USING FSTL1 AND COMBINATION DRUG THEREOF” (PHARMA FOODS INTERNATIONAL CO., LTD., priority 2015, published 2018)
# “Also recorded” adds a separate entry of the source.
# T1: FSTL1 (Homo sapiens, UniProt Q12841)
# T1 sequence (Q12841 21-308): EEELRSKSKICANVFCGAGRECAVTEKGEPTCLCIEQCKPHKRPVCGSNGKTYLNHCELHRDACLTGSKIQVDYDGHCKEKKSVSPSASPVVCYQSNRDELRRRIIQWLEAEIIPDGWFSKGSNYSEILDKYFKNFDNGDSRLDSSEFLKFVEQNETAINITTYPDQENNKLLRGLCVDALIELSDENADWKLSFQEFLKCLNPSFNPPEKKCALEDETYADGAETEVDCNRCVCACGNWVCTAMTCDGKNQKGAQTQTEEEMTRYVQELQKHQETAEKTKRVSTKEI
# B1: #6-55: chicken-mouse chimeric anti-FSTL1 antibody clone; variable regions SEQ ID NO: 783 (light), 785 (heavy) (antibody, V domains shown)
# VH: AVTLDESGGGLQTPGGALSLVCKGSGFTFTSVTMQWVRQAPGKGLEWVASVCSGSSTYYAPAVKGRATISRDNGQSTVRLQLSNLRPEDTGTYYCAKIAGRARWSCTSAAYNIDAWGHGTEVIVSS
# VL: ASTQPSSVSAIPGETVKITCSGGGNNYGWYQQRSPGSAPVTVIYYNDNRPSNIPSRFSGSTSGSTSTLTITGVQADDEAIYYCGSWDSNTDSGIFGAGTTLTVL
# modifications: mouse constant regions
# Experiments:
# mouse melanoma B16-F10 = assay: Mouse melanoma B16-F10 model, subcutaneous and intravenous transplantation (Example 22); assay type: in vivo; details: intraperitoneal 10 mg/kg on days 3 and 6; FIG. 110
# Method: The drug efficacy of the anti-FSTL1 antibody was evaluated according to Examples 17 to 20 using other cancer-bearing models of C57BL/6 mice of the same strain as in Snail-positive tumor bone metastasis models. The “mouse melanoma B16-F10” is a parent line of the cell line forced to express Snail, which was transplanted in the bone metastasis models used in the preceding tests.
# 1. Experiment Group (n=5) • 1. Mouse melanoma B16-F10+control IgG (anti-DNP mAb) • 2. Mouse melanoma B16-F10+anti-FSTL1 mAb (#6-55)
# • Day 0: transplantation of tumor cells (1×10^6 cells subcutaneously & 1×10^6 cells intravenously) • Day 3: intraperitoneal administration of the antibody (first dose, corresponding to 200 μg/mouse=10 mg/kg) • Day 6: intraperitoneal administration of the antibody (second dose, corresponding to 200 μg/mouse=10 mg/kg) • Day 15 various immunological assays
# • Effects on the growth of subcutaneous tumor (calculation of tumor volume by tumor size measurement): measured 6, 10, and 14 days after tumor implantation (FIG. 110A) • Effects on weight loss (FIG. 110B)
# FSTL1 [1] = target: T1, FSTL1; assay: Action of anti-FSTL1 antibody on Panc1 under FSTL1 stimulation; assay type: cell-based; set-up: purchased R&D Systems, Inc. 1694-FN-050; details: Panc1 stimulated with FSTL1 for 3 days; antibody 5 μg/ml
# Method: Next, in order to examine how surrounding tumor cells were changed in a cancer microenvironment by receiving FSTL1 produced by Snail/FSTL1-expressing cells, and how the anti-FSTL1 antibody acts thereon, a human pancreatic cancer cell line Panc1 confirmed to express Snail or FSTL1 only slightly was stimulated with FSTL1 for 3 days. The anti-FSTL1 antibody (#6-55, 5 μg/ml) or a control antibody (aHema, 5 μg/ml) was added to this culture system, and subsequent change in cell function was analyzed in the same way as in the preceding paragraph. […] The paper also reports that FSTL1 enhances invasive capacity.
# [2] = test system: Treg induction caused by FSTL1; assay: Treg induction inhibitory activity using human peripheral blood cells (Example 25); assay type: cell-based; details: human PBMCs; FSTL1 5 ng/ml; antibody 5 μg/mL; 3 days
# Method: Human peripheral blood cells (1×10^6 cells) were stimulated using FSTL1 (5 ng/ml), supplemented with the antibody (5 μg/mL), and cultured for 3 days. The percentage of a Foxp3^+CTLA4^+ cell fraction (Exp. 1) or a CD4^+Foxp3^+CTLA4^+ cell fraction (Exp. 2) in CD4^+ T cells was analyzed as Treg cells by flow cytometry. The flow cytometry conditions are as follows.
# Blood was collected from a healthy person by the addition of a 1/10 amount of 4% sodium citrate, then layered on Ficoll (specific gravity: 1.090), and centrifuged (1500 rpm, 20 min, room temperature), and a cell fraction present in an intermediate layer was used as “PBMCs”. The antibody (5 μg/mL) was added to a system in which these PBMCs (1×10^4 cells) were cultured for 3 days under stimulation with FSTL1 (5 ng/ml) in a 24-well plate. PBMCs recovered from the culture system were incubated at 4° C. for 1 hour using an anti-CD4 antibody (BD Pharmingen/Becton, Dickinson and Company), an anti-CD25 antibody (BD Pharmingen/Becton, Dickinson and Company), and an anti-FoxP3 antibody (eBioscience). Then, the percentage of a Foxp3+CTLA4+ cell fraction (Exp. 1) or a CD4+Foxp3+CTLA4+ cell fraction (Exp. 2) in CD4+ T cells contained therein was analyzed as Treg cells using a flow cytometer FACScan (Becton, Dickinson and Company).
# FSTL1 [3] = target: T1, FSTL1; assay: Ability of FSTL1-induced MSCs from mouse bone marrow cells to differentiate into adipocytes (Examples 14, 16); assay type: cell-based; set-up: purchased R&D Systems, Inc. 1694-FN-050; details: Example 16; antibody doses as in Example 15
# Method: The antibody clone (#6-55, #7, […], #13, or #22) was evaluated for its activity by the same testing method as in Example 13. #6-55 was set as a positive control for activity. […] Mouse bone marrow cells were supplemented with FSTL1 and the predetermined concentration of each antibody and cultured for 8 days. 5×10^4 cells/well were separated from each culture system and evaluated for the ability to differentiate into adipocytes using an adipocyte differentiation reagent included in “Mesenchymal Stem Cell Functional Identification Kit (R&D Systems, Inc., Cat. No. SCO10)”. For the evaluation method, the cells were supplemented with the adipocyte differentiation reagent and cultured for 8 days. Then, adipocytes per culture system were counted under a microscope for evaluation. […]
# In the same way as in Example 15, mouse bone marrow cells were supplemented with FSTL1 and the predetermined concentration of each antibody and cultured for 8 days. 5×10^4 cells/well were separated from each culture system and evaluated for the ability to differentiate into adipocytes using an adipocyte differentiation reagent included in “Mesenchymal Stem Cell Functional Identification Kit (R&D Systems, Inc., Cat. No. SC010)”. […] Then, adipocytes per culture system were counted under a microscope for evaluation (FIG. 40B). […]
molecule,measurement,setting,value
B1,subcutaneous tumor growth,mouse melanoma B16-F10,strongly suppressed
same,weight loss,mouse melanoma B16-F10,suppressive activity against weight loss was also exhibited
same,cell growth,FSTL1 [1],the cell growth was reduced
same,invasive capacity enhanced by FSTL1,FSTL1 [1],the action thereof is canceled
same,Treg induction by FSTL1 (Foxp3+CTLA4+ / CD4+Foxp3+CTLA4+ cell fraction),[2],significantly suppressed
same,cells differentiating into adipocytes / induction of MSCs having the ability to differentiate into adipocytes,FSTL1 [3],decreased in number by the addition of #6-55 in a dose-dependent manner; also recorded: inhibited by 46-55 in an antibody dose-dependent manner; also recorded: inhibited by #6-55 in an antibody dose-dependent manner
